Values quoted from earlier work, collected in paper PMC3086721.

Target: ubiquitin (Homo sapiens) (UniProt P0CG47)

Sequence of E2-25K UBA (P61086 157-200): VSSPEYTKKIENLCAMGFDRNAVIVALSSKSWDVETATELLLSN

Kd: 400 µM
Substance: E2-25K UBA (from UniProt P61086)
